B1: TRX2 ScFv: anti-CD8 TRX2 ScFv, SEQ ID NO: 98 (protein)
scFv: QVQLVESGGGVVQPGRSLRLSCAASGFTFSDFGMNWVRQAPGKGLEWVALIYYDGSNKFYADSVKGRFTISRDNSKNTLYLQMNSLRAEDTAVYYCAKPHYDGYYHFFDSWGQGTLVTVSSGGGGSGGGGSGGGGSGGGGSDIQMTQSPSSLSASVGDRVTITCKGSQDINNYLAWYQQKPGKAPKLLIYNTDILHTGVPSRFSGSGSGTDFTFTISSLQPEDIATYYCYQYNNGYTFGQGTKVEIKGGGSGGCGGHHHHHH
B2: OKT4: anti-CD4 humanized OKT4 bDS Fab, SEQ ID NO: 74 and 75 (antibody)
heavy: EVQLVESGGGLVQPGGSLRLSCAASGFTFSNYAMSWVRQAPGKRLEWVSAISDHSTNTYYPDSVKGRFTISRDNAKNTLYLQMNSLRAEDTAVYYCARKYGGDYDPFDYWGQGTLVTVSSASTKGPSVFPLAPSSKSTSGGTAALGCLVKDYFPEPVTVSWNSGALTSGVHTCPAVLQSSGLYSLSSVVTVPSSSLGTQTYICNVNHKPSNTKVDKKVEPKSSDKTHTCHHHHHH
light: DIQMTQSPSSLSASVGDRVTITCQASQDINNYIAWYQHKPGKGPKLLIHYTSTLQPGIPSRFSGSGSGRDYTLTISSLQPEDFATYYCLQYDNLLFTFGGGTKVEIKRTVAAPSVFIFPPSDEQLKSGTASVVCLLNNFYPREAKVQWKVDNALQSGNSQESVTEQDSKDSTYSLCSTLTLSKADYEKHKVYACEVTHQGLSSPVTKSFNRGES
B3: V1: anti-CD7 Nanobody, SEQ ID NO: 80 (protein)
VHH: DVQLQESGGGLVQAGGSLRLSCAVSGYPYSSYCMGWFRQAPGKEREGVAAIDSDGRTRYADSVKGRFTISQDNAKNTLYLQMNRMKPEDTAMYYCAARFGPMGCVDLSTLSFGHWGQGTQVTVSITGGGCHHHHHHHH
B4: 12D2: anti-CD3 12D2 bDS Fab, SEQ ID NO: 84 and 85 (antibody)
heavy: EVKLVESGGGLVQPGRSLRLSCAASGFNFYAYWMGWVRQAPGKGLEWIGEIKKDGTTINYTPSLKDRFTISRDNAQNTLYLQMTKLGSEDTALYYCAREERDGYFDYWGQGVMVTVSSASTKGPSVFPLAPSSKSTSGGTAALGCLVKDYFPEPVTVSWNSGALTSGVHTCPAVLQSSGLYSLSSVVTVPSSSLGTQTYICNVNHKPSNTKVDKKVEPKSSDKTHTCGGHHHHHH
light: QFVLTQPNSVSTNLGSTVKLSCKRSTGNIGSNYVNWYQQHEGRSPTTMIYRDDKRPDGVPDRFSGSIDRSSNSALLTINNVQTEDEADYFCQSYSSGIVFGGGTKLTVLSQPKAAPSVTLFPPSSEELQANKATLVCLVSDFYPGAVTVAWKADGSPVKVGVETTKPSKQSNNKYAACSYLSLTPEQWKSHRSYSCRVTHEGSTVEKTVAPAESS
B5: A3: anti-CD56 A3 Fab bDS, SEQ ID NO: 30 and 31 (antibody)
heavy: EVQLVQSGAEVKKPGSSVKVSCKASGGTFTGYYMHWVRQAPGQGLEWMGWINPNSGGTNYAQKFQGRVTMTRDTSISTAYMELSRLRSDDTAVYYCARDLSSGYSGYFDYWGQGTLVTVSSASTKGPSVFPLAPSSKSTSGGTAALGCLVKDYFPEPVTVSWNSGALTSGVHTCPAVLQSSGLYSLSSVVTVPSSSLGTQTYICNVNHKPSNTKVDKKVEPKSSDKTHTCGGHHHHHH
light: DVVMTQSPLSLPVTPGEPASISCRSSQSLLHSNGYNFLDWYLQKPGQSPQLLIYLGSNRASGVPDRFSGSGSGTDFTLKISRVEADDVGVYYCMQSLQTPWTFGHGTKVEIKRTVAAPSVFIFPPSDEQLKSGTASVVCLLNNFYPREAKVQWKVDNALQSGNSQESVTEQDSKDSTYSLCSTLTLSKADYEKHKVYACEVTHQGLSSPVTKSFNRGES
B6: Lorvotuzumab: anti-CD56 Lorvotuzumab Fab bDS, SEQ ID NO: 32 and 33 (antibody)
heavy: QVQLVESGGGVVQPGRSLRLSCAASGFTFSSFGMHWVRQAPGKGLEWVAYISSGSFTIYYADSVKGRFTISRDNSKNTLYLQMNSLRAEDTAVYYCARMRKGYAMDYWGQGTLVTVSSASTKGPSVFPLAPSSKSTSGGTAALGCLVKDYFPEPVTVSWNSGALTSGVHTCPAVLQSSGLYSLSSVVTVPSSSLGTQTYICNVNHKPSNTKVDKKVEPKSSDKTHTCHHHHHH
light: DVVMTQSPLSLPVTLGQPASISCRSSQIIIHSDGNTYLEWFQQRPGQSPRRLIYKVSNRFSGVPDRFSGSGSGTDFTLKISRVEAEDVGVYYCFQGSHVPHTFGQGTKVEIKRTVAAPSVFIFPPSDEQLKSGTASVVCLLNNFYPREAKVQWKVDNALQSGNSQESVTEQDSKDSTYSLCSTLTLSKADYEKHKVYACEVTHQGLSSPVTKSFNRGES

What follows are molecules tested on human CD3 T cells (assay: Transfection of human CD3 T cells (CD8 and CD4 subsets) with Fab/Nb-targeted LNPs). Conditions: targeted Lipid 8 LNP (Lipid 5 in Example 43), GFP mRNA approximately 2.5 μg/mL, approximately 24 hr.
Assay type: cell-based
Protocol: LNPs were prepared using the mixing process described in Example 6, the buffer exchange process described below in Example 21. Using methods similar to Example 12, hSP34 and TRX2 Fab-lipid conjugates and a non-T cell specific anti-HER2 lipid-conjugate (Nellis D F, Ekstrom D L, Kirpotin D B, Zhu J, Andersson R, Broadt T L, Ouellette T F, Perkins S C, Roach J M, Drummond D C, Hong K, Marks J D, Park J W and Giardina S L (2005) Preclinical manufacture of an anti-HER2 scFv-PEG-DSPE, liposome-inserting conjugate. 1. Gram-scale production and purification. Biotechnol Prog 21:205-220) were post-inserted at various densities (SP34 0.25-17 g/mol; TRX2 0.25-9 g/mol; SP34+TRX2 0.25-9 g/mol each conjugate; anti-HER2 17 g/mol) into LNPs containing Lipid 8 and anti-CD20 targeting CART mRNA. Transfections were performed with human CD3 T cells at approximately 2.5 μg/mL mRNA for approximately 24 hr. For FACS analysis T cells were stained with M1 antibody (Sigma, F3040) that bind a N-terminus FLAG-tag variant sequence on the TTR-023 CAR (sequence provided below) in addition to staining for CD69 (Biolegend, 310930) and CD4 (Biolegend, 344648) to differentiate CD8 from CD4 cells.
LNPs were prepared using the mixing process described in Example 6, the buffer exchange process described in Example 21. Using methods similar to Example 12, hSP34, TRX2, and Ibalizumab Fab-lipid conjugates and a non-T cell specific anti-HER2 lipid-conjugate were post-inserted at various densities (specified in FIGS. 20A and 20B into LNPs containing Lipid 8 and Cy5/GFP mRNA. Transfections were performed with human CD3 T cells at approximately 2.5 μg/mL mRNA for approximately 24 hr and stained for CD69 (Biolegend, 310930) and CD4 (Biolegend, 344648) to differentiate CD8 from CD4 cells by FACS analysis.
LNPs were prepared using the mixing process described in Example 6, the buffer exchange process described in Example 21. Conjugates were generated using a method similar to that of Example 4 except 0.025, 0.1, 0.5 mM TCEP was used for hSP34 DS, 0.025, 0.2, 2 mM TCEP was used for hSP34-hlam NoDS (interchain disulfide knockout) for reduction prior to conjugation and the conjugation reactions were performed at 37 C for 2 hr. SDS-PAGE (FIGS. 65A, 65B) was performed using the manufacturers recommended conditions with 1 ug of protein (Thermo, 4-12% Bis-Tris MiniGel). RP-HPLC (FIGS. 65C, 65D) was performed using an Agilent 300 SB-C8 at 0.5 mL/min with a column temperature of 60° C., Mobile Phase A: Water with 0.1% TFA, Mobile Phase B: Acetonitrile with 0.1% TFA, Gradient % B: 0 min 5%, 1 min 5%, 6.5 min 95%, 8 min 95% injecting 10 ul with a target of 1-25 ug of protein. Using methods similar to Example 12, ant-CD3 hSP34 (with and without natural interchain disulfide, DS (with interchain disulfide) vs. NoDS (without interchain disulfide), see sequences below) PEG-lipid conjugated Fabs were post-inserted at various Fab densities (6, 12, 17 g Fab/mol total lipid) into LNPs containing Lipid 8 and Cy5/GFP mRNA. Transfections were performed with human CD3 T cells at approximately 2.5 μg/mL mRNA for approximately 24 hr. Levels of transfection of CD3 T cells was measured by flow cytometry.
LNPs were prepared using the mixing process described in Example 6, the buffer exchange process described in Example 21. Conjugates were generated using a method similar to that of Example 4 except 0.1 mM TCEP was used for reduction prior to conjugation and the conjugation reaction was performed at 37 C for 2 hr. […]
With B1 the “% GFP transfection and GFP expression (MFI) of CD8 and CD4 T cells, in words” value (from here on “% GFP transfection and GFP expression”) was “slightly lower % transfection (FIG. 82A) and GFP expression levels (FIG. 82B) in the CD8 T cell subset relative to the anti-CD8 TRX2 NoDS Fab”. With B2 the “% GFP transfection and GFP expression” value was “highly specific LNP transfection and protein translation of CD4+ T cells versus CD8+ T cells”. With B3 the “% GFP transfection and GFP expression” value was 3.4K PEG mediated higher transfection and expression than the 5K PEG. In the case of B4, the “% GFP transfection and GFP expression” value is reported as “can efficiently transfect both CD8 and CD4 T cell subsets”.

What follows are molecules tested on primary human NK cells (assay: LNP transfection of co-cultured human T cells and NK cells: NK cells). Conditions: Lipid 8 LNP, 2.5 ug/mL mRNA, 24 hours.
Assay type: cell-based
Protocol: CD3-depleted PBMCs were purified using magnetic-based CD3 positive selection and retaining of the negative fraction. 20 million CD3 depleted PBMCs were added to 1 well of a 6 well GREX plate in media containing 10 ng/mL IL-15 for 7 days. On day 7, each well was split in 2 and cells were cultured further in media containing 10 ng/mL IL-15 for an additional 7 days. On day 14, NK cells were concentrated to 1 million cells/mL in preparation for co-transfection with primary human T cells.
LNPs were prepared using the mixing process described in Example 6, the buffer exchange process described in Example 25. The LNPs were formulated using eGFP encoding mRNA (TriLink Biotechnologies, California, US), Lipid 8 as the ionizable lipid, and labeled with 0.01 mol % DiIC18(5)-DS (Invitrogen, Massachusetts, US). Fab-lipid conjugates generated from methods described in Example 4 while generation of Nb-conjugated differed in using 1:1:4 Nb:DSPE-SKPEG-maileimide:DSPE-2KPEG-OCH3 and a 50 kD UF membrane (Millipore Corp, Billerica, Mass. USA) for separation of Nb-conjugate from free Nb. Using methods similar to Example 12, conjugated Fabs and conjugated Nb were post-inserted at various densities (Table 41) into LNPs containing Lipid 8 and GFP mRNA with DiI dye. […]. […]
24 hours after LNP transfection, cell culture media was aspirated from T cell and NK cell co-cultures after centrifugation. […] Following acquisition by flow cytometry, T cells and NK cells were analyzed independently using FlowJo (flow cytometry analysis software). In either CD3+ cells (T cells) or CD56+ cells (NK cells), the frequency of GFP positive events relative to GFP negative events was calculated (FIG. 64A). Additionally, the overall fluorescence of GFP was quantified by assessment of mean fluorescence intensity (MFI, FIG. 64B). […] Together, these metrics enabled quantification of LNP transfection efficiency of all targeted LNPs tested in primary human T cell and NK cell co-cultures.
In the case of B5, the “transfection of NK cells in T/NK co-culture (% GFP, GFP MFI, DiI), in words” value is reported as “highly specific transfection of NK cells”. With B6 the “transfection of NK cells in T/NK co-culture (% GFP, GFP MFI, DiI), in words” value was “highly specific transfection of NK cells”.

Source: patent US20220218614A1, “IONIZABLE CATIONIC LIPIDS AND LIPID NANOPARTICLES, AND METHODS OF SYNTHESIS AND USE THEREOF” (Tidal Therapeutics, Inc., priority 2020, published 2022)
